The results in this text go back to patent US20220308056.

This data set concerns the target recombinant SARS-Cov-2 nucleocapsid protein (NP2), P0DTC9.

B1: recombinant MASP-2 (rMASP-2) of Example 23 (protein)
chain: TPLGPKWPEPVFGRLASPGFPGEYANDQERRWTLTAPPGYRLRLYFTHFDLELSHLCEYDFVKLSSGAKVLATLCGQESTDTERAPGKDTFYSLGSSLDITFRSDYSNEKPFTGFEAFYAAEDIDECQVAPGEAPTCDHHCHNHLGGFYCSCRAGYVLHRNKRTCSALCSGQVFTQRSGELSSPEYPRPYPKLSSCTYSISLEEGFSVILDFVESFDVETHPETLCPYDFLKIQTDREEHGPFCGKTLPHRIETKSNTVTITFVTDESGDHTGWKIHYTSTAQPCPYPMAPPNGHVSPVQAKYILKDSFSIFCETGYELLQGHLPLKSFTAVCQKDGSWDRPMPACSIVDCGPPDDLPSGRVEYITGPGVTTYKAVIQYSCEETFYTMKVNDGKYVCEADGFWTSSKGEKSLPVCEPVCGLSARTTGGRIYGGQKAKPGDFPWQVLILGGTTAAGALLYDNWVLTAAHAVYEQKHDASALDIRMGTLKRLSPHYTQAWSEAVFIHEGYTHDAGFDNDIALIKLNNKVVINSNITPICLPRKEAESFMRTDDIGTASGWGLTQRGFLARNLMYVDIPIVDHQKCTAAYEKPPYPRGSVTANMLCAGLESGGKDSCRGDSGGALVFLDSETERWFVGGIVSWGSMNCGEAGQYGVYTKVINYIPWIENIISDF
With B1, the “C4 cleavage on NP2-coated wells (SDS-PAGE Western blot)” value is “a new band corresponding to C4′α”.
